B1: NLV3 TCR beta chain (CDR3β only) (parent)
chain: ASSPTGGSPSPLH

Variants of B1 are the subject of the experiment. Nature of the experiment: T-Switch: Jurkat TCRβ−/− cells expressing a CDR3 saturation-mutagenesis library, stained with two peptide-HLA-A*02:01 tetramers (original and novel peptide) plus anti-CD3, FACS-sorted into four gates, gDNA sequenced. The note with it: tetramers 1 µg/mL, 30 min on ice, SP, DP and SW gates expanded about 10 days between rounds ('two to three rounds of selection' in the Methods), unresolved parent, parent is a CDR3 fragment, scale: fold enrichment, numbering: sequential-on-construct, sequence starts at 1.

Setting [1] is: with both tetramers (double-negative gate, binds neither): HLA-A*02:01 with … and with …, gate DN: OPPOSITE: higher = more of the variant in the gate that binds neither peptide = LESS binding (or no expression; inferred). Fold enrichment of the CDR3 variant in one FACS gate of a two-tetram.
[2] abbreviates: with both tetramers (double-positive gate): HLA-A*02:01 with … and with …, gate DP: higher = more of the variant in the gate that binds both peptides. Fold enrichment of the CDR3 variant in one FACS gate of a two-tetramer stain. SP/DP/SW gates were expanded and re-sorted bef.

As for […] (CDR3 as printed); L12S derived by comparing it with the table's wild-type CDR3 ASSPTGGSPSPLH, the enrichment reads like this: under setting [1], 0.878; under setting [2], 0.
The corresponding values for […] (CDR3 as printed); G6T derived by comparing it with the table's wild-type CDR3 ASSPTGGSPSPLH are 1.01 and 0.
Turning to […] (CDR3 as printed); T5K derived by comparing it with the table's wild-type CDR3 ASSPTGGSPSPLH, the enrichment by setting is: under setting [1], 0.965; under setting [2], 0.
The corresponding values for […] (CDR3 as printed); S8A derived by comparing it with the table's wild-type CDR3 ASSPTGGSPSPLH are 0.6 and 0.
On the same counts, the results for […] (CDR3 as printed); H13T derived by comparing it with the table's wild-type CDR3 ASSPTGGSPSPLH are 0.524 and 0.
On to […] (CDR3 as printed); S3Y derived by comparing it with the table's wild-type CDR3 ASSPTGGSPSPLH, for which the enrichment by setting is: under setting [1], 0.895; under setting [2], 0.
Turning to […] (CDR3 as printed); H13Q derived by comparing it with the table's wild-type CDR3 ASSPTGGSPSPLH, the enrichment is, setting by setting: under setting [1], 0.592; under setting [2], 0.
[…] (CDR3 as printed); S8D derived by comparing it with the table's wild-type CDR3 ASSPTGGSPSPLH: the enrichment by setting is: under setting [1], 0.969; under setting [2], 0.
As to […] (CDR3 as printed); S8R derived by comparing it with the table's wild-type CDR3 ASSPTGGSPSPLH, the enrichment was 0.977 under setting [1] and 0 under setting [2].
Take […] (CDR3 as printed); S3K derived by comparing it with the table's wild-type CDR3 ASSPTGGSPSPLH: the enrichment under setting [1] was found to be 1.11 and the enrichment under setting [2] amounted to 0.
The corresponding values for […] (CDR3 as printed); P9M derived by comparing it with the table's wild-type CDR3 ASSPTGGSPSPLH are 1.18 and 0.
On the same counts, the results for […] (CDR3 as printed); P11L derived by comparing it with the table's wild-type CDR3 ASSPTGGSPSPLH are 0.702 and 0.
The corresponding values for […] (CDR3 as printed); A1S derived by comparing it with the table's wild-type CDR3 ASSPTGGSPSPLH are 1.25 and 0.
For the variant […] (CDR3 as printed); S10D derived by comparing it with the table's wild-type CDR3 ASSPTGGSPSPLH, the enrichment is 0.754 under setting [1] and 0 under setting [2].
On the same counts, the results for […] (CDR3 as printed); P9T derived by comparing it with the table's wild-type CDR3 ASSPTGGSPSPLH are 1.11 and 0.
The corresponding values for […] (CDR3 as printed); S2M derived by comparing it with the table's wild-type CDR3 ASSPTGGSPSPLH are 0.757 and 0.
On the same counts, the results for […] (CDR3 as printed); S3A derived by comparing it with the table's wild-type CDR3 ASSPTGGSPSPLH are 0.616 and 0.
In the case of […] (CDR3 as printed); P4W derived by comparing it with the table's wild-type CDR3 ASSPTGGSPSPLH, the enrichment amounted to 1.23 under setting [1] and 0 under setting [2].
The corresponding values for […] (CDR3 as printed); P4I derived by comparing it with the table's wild-type CDR3 ASSPTGGSPSPLH are 0.965 and 0.
[…] (CDR3 as printed); P4N derived by comparing it with the table's wild-type CDR3 ASSPTGGSPSPLH: the enrichment runs as follows: under setting [1], 1.17; under setting [2], 0.
The corresponding values for […] (CDR3 as printed); A1K derived by comparing it with the table's wild-type CDR3 ASSPTGGSPSPLH are 0.994 and 0.
The corresponding values for […] (CDR3 as printed); L12K derived by comparing it with the table's wild-type CDR3 ASSPTGGSPSPLH are 0.756 and 0.
As for […] (CDR3 as printed); S3E derived by comparing it with the table's wild-type CDR3 ASSPTGGSPSPLH, the enrichment reads like this: under setting [1], 0.814; under setting [2], 0.
On the same counts, the results for […] (CDR3 as printed); S8F derived by comparing it with the table's wild-type CDR3 ASSPTGGSPSPLH are 0.97 and 0.
On the same counts, the results for […] (CDR3 as printed); A1N derived by comparing it with the table's wild-type CDR3 ASSPTGGSPSPLH are 1.07 and 0.
On the same counts, the results for […] (CDR3 as printed); S2V derived by comparing it with the table's wild-type CDR3 ASSPTGGSPSPLH are 0.992 and 0.
On to […] (CDR3 as printed); P9W derived by comparing it with the table's wild-type CDR3 ASSPTGGSPSPLH, for which the enrichment is, setting by setting: under setting [1], 1.05; under setting [2], 0.
On the same counts, the results for […] (CDR3 as printed); S10G derived by comparing it with the table's wild-type CDR3 ASSPTGGSPSPLH are 0.33 and 0.
On the same counts, the results for […] (CDR3 as printed); S10F derived by comparing it with the table's wild-type CDR3 ASSPTGGSPSPLH are 1.25 and 0.
On the same counts, the results for […] (CDR3 as printed); S8K derived by comparing it with the table's wild-type CDR3 ASSPTGGSPSPLH are 0.743 and 0.
For […] (CDR3 as printed); S2P derived by comparing it with the table's wild-type CDR3 ASSPTGGSPSPLH, the enrichment is 0.795 under setting [1] and 0 under setting [2].
For […] (CDR3 as printed); G7Y derived by comparing it with the table's wild-type CDR3 ASSPTGGSPSPLH, the enrichment under setting [1] turned out to be 0.917 and the enrichment under setting [2] was 0.
On the same counts, the results for […] (CDR3 as printed); G7V derived by comparing it with the table's wild-type CDR3 ASSPTGGSPSPLH are 1.02 and 0.
On to […] (CDR3 as printed); G7E derived by comparing it with the table's wild-type CDR3 ASSPTGGSPSPLH, for which the enrichment by setting is: under setting [1], 1.08; under setting [2], 0.
With […] (CDR3 as printed); P9H derived by comparing it with the table's wild-type CDR3 ASSPTGGSPSPLH, the enrichment by setting is: under setting [1], 0.681; under setting [2], 0.
For […] (CDR3 as printed); S10C derived by comparing it with the table's wild-type CDR3 ASSPTGGSPSPLH, the enrichment came out at 0.577 under setting [1] and 0 under setting [2].
On the same counts, the results for […] (CDR3 as printed); S10H derived by comparing it with the table's wild-type CDR3 ASSPTGGSPSPLH are 0.949 and 0.
As for […] (CDR3 as printed); S8Q derived by comparing it with the table's wild-type CDR3 ASSPTGGSPSPLH, the enrichment under setting [1] worked out at 0.893 and the enrichment under setting [2] amounted to 0.
For the variant […] (CDR3 as printed); A1H derived by comparing it with the table's wild-type CDR3 ASSPTGGSPSPLH, the enrichment turned out to be 0.916 under setting [1] and 0 under setting [2].
With […] (CDR3 as printed); S2A derived by comparing it with the table's wild-type CDR3 ASSPTGGSPSPLH, the enrichment runs as follows: under setting [1], 0.536; under setting [2], 0.
With […] (CDR3 as printed); T5G derived by comparing it with the table's wild-type CDR3 ASSPTGGSPSPLH, the enrichment was 0.828 under setting [1] and 0 under setting [2].
Regarding […] (CDR3 as printed); G7K derived by comparing it with the table's wild-type CDR3 ASSPTGGSPSPLH, the enrichment runs as follows: under setting [1], 1.36; under setting [2], 0.
With […] (CDR3 as printed); P11F derived by comparing it with the table's wild-type CDR3 ASSPTGGSPSPLH, the enrichment under setting [1] came to 0.728 and the enrichment under setting [2] is 0.
As to […] (CDR3 as printed); T5F derived by comparing it with the table's wild-type CDR3 ASSPTGGSPSPLH, the enrichment is, setting by setting: under setting [1], 0.464; under setting [2], 0.
The corresponding values for […] (CDR3 as printed); H13E derived by comparing it with the table's wild-type CDR3 ASSPTGGSPSPLH are 0.868 and 0.
The corresponding values for […] (CDR3 as printed); G7C derived by comparing it with the table's wild-type CDR3 ASSPTGGSPSPLH are 0.947 and 0.
The corresponding values for […] (CDR3 as printed); A1C derived by comparing it with the table's wild-type CDR3 ASSPTGGSPSPLH are 1.24 and 0.
Regarding […] (CDR3 as printed); G6Q derived by comparing it with the table's wild-type CDR3 ASSPTGGSPSPLH, the enrichment under setting [1] worked out at 1.2 and the enrichment under setting [2] worked out at 0.
The corresponding values for […] (CDR3 as printed); P9R derived by comparing it with the table's wild-type CDR3 ASSPTGGSPSPLH are 1.13 and 0.
The corresponding values for […] (CDR3 as printed); S8V derived by comparing it with the table's wild-type CDR3 ASSPTGGSPSPLH are 0.756 and 0.
For the variant […] (CDR3 as printed); P11Q derived by comparing it with the table's wild-type CDR3 ASSPTGGSPSPLH, the enrichment reads like this: under setting [1], 0.777; under setting [2], 0.
Regarding […] (CDR3 as printed); T5M derived by comparing it with the table's wild-type CDR3 ASSPTGGSPSPLH, the enrichment reads like this: under setting [1], 0.479; under setting [2], 0.
On the same counts, the results for […] (CDR3 as printed); G6V derived by comparing it with the table's wild-type CDR3 ASSPTGGSPSPLH are 1.33 and 0.
On the same counts, the results for […] (CDR3 as printed); G6S derived by comparing it with the table's wild-type CDR3 ASSPTGGSPSPLH are 0.376 and 0.
The corresponding values for […] (CDR3 as printed); A1Y derived by comparing it with the table's wild-type CDR3 ASSPTGGSPSPLH are 1.15 and 0.
Consider […] (CDR3 as printed); A1G derived by comparing it with the table's wild-type CDR3 ASSPTGGSPSPLH, for which the enrichment is, setting by setting: under setting [1], 0.451; under setting [2], 0.
The corresponding values for […] (CDR3 as printed); L12N derived by comparing it with the table's wild-type CDR3 ASSPTGGSPSPLH are 0.99 and 0.
In the case of […] (CDR3 as printed); P9Q derived by comparing it with the table's wild-type CDR3 ASSPTGGSPSPLH, the enrichment turned out to be 0.777 under setting [1] and 0 under setting [2].

The values are drawn from paper PMC13397619.
